From patent US20260234290A1, “Antibodies to Stat3 Decoy Oligonucleotide” (The Regents of the University of California, priority 2023, published 2026)

System: CS3D
Assay: BLI koff of purified Fabs from CS3D biopanning
Type: binding
Experimental: First, standard biopanning (FIG. 1) was performed with Ag immobilized magnetic beads. A total of six rounds were performed with increasing stringency of washes and decreasing amounts of Ag per round. Assuming strong enrichment occurred continuously throughout the campaign, 95 colonies were randomly picked each round 4-6 (285 clones total) for candidate hit screening.
In efforts to identify improved binders, BIAS was performed with identical clones picked previously that were randomly sequenced. […] Therefore, we hypothesized that strong growth/display propensity biases were a dominant factor during the campaign, leading primarily to the identification of low-affinity binders.
Fluorescent activated sorting was applied to round 4 as both the population percentage and the normalized MFI of the shoulder population are the highest (FIG. 7). The shoulder population (top ~4%) was sorted along with the majority population (bottom ~96%) and both populations were used to infect TG1 (E. coli) cells. […] BIAS hits of the top ~4% sorted population were sequenced, and a new candidate binder, SP1-B3, was identified, along with identical clones of previously identified low-affinity binders.
All buffers were filter sterilized with […] filters prior to preparing samples. Black 384 well microplates were used to set up BLI plates and streptavidin tips were purchased by Sartorius. Kinetic constants of Fabs were determined by Octet RED384 system with continuous shaking at 1000 rpm in RT. Prior to the experiment, biological tips (model name) were presoaked in buffer to allow for equilibration for 1 hour. Data were analyzed using 1:1 interaction model on the ForteBio data analysis software 12.0.
Freshly transformed BL21 (DE3) E. coli single colony clones were picked and inoculated into 50 ml of 2×YT media containing 2% glucose and […] Ampicillin. Starter cultures were grown overnight at 37 °C with 200 rpm shaking. […]

B1: SP1-B3: anti-CS3D Fab from RAPID sorting of round 4; VH SEQ ID NO: 3, VL SEQ ID NO: 4 (antibody, V domains shown)
VH: QVTLQQSGPGLVKPSQTLSLTCAISGDSVSSNSAAWNWIRQSPSRGLEWLGRTYYRSKWFTYYAASVKGRISINRDTSKNQFSLQLNSVTPDDTAVYFCARGSGGYIDHWGQGTLVTVSS
VL: QAVLTQPSSLSASPGASASLTCTLRSGINVDSYRIYWYQQKPGSPPQYLLRYKSDSDKQQGSGVPSRFSGSKDASANAGILLISGLQSEDEADYYCMIWHSSAVVFGGGTKLTVL
With B1 as the molecule, how does the “koff fold lower than the Fab with the highest koff” value read?
Its value is over 20 fold.

And the “koff fold lower than the previously identified Fab with the lowest koff” value?
Its value is ~ 3 fold.

And the koff (measured at 2 μM Fab)?
The koff was 0.0211 s⁻¹.
